Data published in patent US20220145281A1, “NEW VACCINAL STRATEGY TO PREVENT OR TREAT RHUMATOID ARTHRITIS” (INSERM (Institut National de la Santé et de la Recherche …, priority 2019, published 2022).

Key:
HLA-DRB1*04:02 = HLA-DRB1*04:02 (Homo sapiens, UniProt P01903+P01911, A100E/A169T/F76Y/K127E/L162R/M171V/N62H/P40V/Q125Y/Q99D/R42H/S133A/S149N/S66Y/V209L/W38E); test: HLA-DR peptide-binding assay (ELISA); conditions: positive binding = OD equal to the OD for the HA peptide
[1] = test system: Mononuclear cells (PBLs) from patients and controls; test: T cell proliferation assay (BRDU incorporation); type: cell-based, human; conditions: healthy controls, 11, 5 μg/ml peptide, 6 days
Description: T cell proliferation assay. Mononuclear cells from patients were isolated from 20 ml of heparinized blood by centrifugation through Ficoll-Histopaque (Sigma Aldrich, St. Quentin-Fallavier, France). Cells were cultured at a density of 10^6 cells/ml in RPMI 1640 with 10% self-serum in the presence of 1 μg/ml of human PAD4 or human fibrinogen or PHA (phytohemagglutinin) or 5 μg/ml of PAD4 peptide. After 6 days of culture at 37° C., proliferative response to proteins was evaluated using the colorimetric bromodeoxyuridine kit (Roche Diagnostics, Meylan, France). Positive T cell responses were defined by optical densities (OD) higher than twice the ODs for cells cultured without protein or peptide.

HLA-DRB1*07:01 = HLA-DRB1*07:01 (Homo sapiens, UniProt P01903+P01911, A100R/A102G/A103Q/D57E/D86V/E43K/F76Y/K127E/L162R/M171V/P40G/Q125H/Q99D/R33Q/R42Y/R54Q/S133A/S66F/T210M/V115G/Y107V/Y59L/Y89S); test: HLA-DR peptide-binding assay (ELISA); conditions: positive binding = OD equal to the OD for the HA peptide
HLA-DRB1*01:01 = molecular target: T1, HLA-DRB1*01:01 (Homo sapiens, UniProt P01903+P01911, A100R/D57E/F55L/F60I/F76Y/I96L/L162R/M171V/P40L/Q125E/R42F/V115G/Y59C); test: HLA-DR peptide-binding assay (ELISA); conditions: positive binding = OD equal to the OD for the HA peptide
T1 construct: Purification of HLA-DRB1 molecules from lymphoblastoid cell lines; Total protein extracts were immunoprecipitated by anti-HLA-DR LB3.1 antibody; endogenous in cells; host or cells: JESTHOM lymphoblastoid cell line, HLA homozygous

HLA-DRB1*04:04 = HLA-DRB1*04:04 (Homo sapiens, UniProt P01903+P01911, A100R/A169T/F76Y/I96L/K127E/L162R/M171V/N62H/P40V/Q125Y/R42H/S133A/S149N/S66Y/V209L/W38E); test: HLA-DR peptide-binding assay (ELISA); conditions: positive binding = OD equal to the OD for the HA peptide
HLA-DRB1*04:01 = molecular target: T2, HLA-DRB1*04:01 (Homo sapiens, UniProt P01903+P01911, A100K/A169T/F76Y/I96L/K127E/L162R/M171V/N62H/P40V/Q125Y/R42H/S133A/S149N/S66Y/V115G/V209L/W38E); test: HLA-DR peptide-binding assay (ELISA); conditions: positive binding = OD equal to the OD for the HA peptide
T2 construct: Purification of HLA-DRB1 molecules from lymphoblastoid cell lines; Total protein extracts were immunoprecipitated by anti-HLA-DR LB3.1 antibody; endogenous in cells; host or cells: SAVC lymphoblastoid cell line, HLA homozygous

[2] = test system: 5 purified HLA-DR molecules; test: HLA-DR peptide-binding assay, panel of alleles and likelihood calculation per genotype; design: species or system human
[3] = molecular target: T3, HLA-DR molecule HLA-DRB1*04:01, purified from lymphoblastoid cell line SAVC (human); test: ELISA: peptide coated on plate, purified HLA-DR added
T3 construct: Immunoprecipitated from detergent cell lysate with anti-HLA-DR LB3.1 and eluted at pH 2
Description: (§1) HLA-DR Peptide-binding assay. ELISA plates were coated with 10 μg of PAD4 or fibrinogen peptide/well and blocked in 1% bovine serum albumin (BSA). One microgram of purified HLA-DR molecule was added to plates. After washing, bound HLA-DR was detected by biotinylated anti HLA-DR antibody B8122 (Immunotech, Marseille, France), followed by peroxidase-conjugated avidin. Peroxidase-conjugated anti-mouse IgG and peroxidase-conjugated avidin were supplied by Sigma Aldrich (St. Quentin-Fallavier, France). Optical density was read at 405 nm. The binding of each of the purified HLA-DR alleles was assayed on ELISA plates coated with peptides from PAD4 or Fibrinogen (each in duplicate wells) and, as controls, 2 wells coated with a classical positive binder, influenza hemagglutinin (HA) peptide ([…]). Positive binding was defined as an OD value equal to the OD for the HA peptide.

CD4 T cells = test: Flow cytometry analysis of whole blood samples stimulated with PAD4; type: cell-based, human; conditions: 10 RA patients and 7 controls
Text: One patient with RA (2.4%) and none of the patients with psoriatic arthritis or healthy controls had proliferative response to citrullinated fibrinogen. To confirm that the proliferative response observed in PBLs cultured with PAD4 was due to T cells, we ran flow cytometry analysis in an extra 10 RA patients and 7 controls.

[4] = molecular target: T4, HLA-DR molecule HLA-DRB1*07:01, purified from lymphoblastoid cell line MOU (human); test: ELISA: peptide coated on plate, purified HLA-DR added
T4 construct: Immunoprecipitated from detergent cell lysate with anti-HLA-DR LB3.1 and eluted at pH 2
Description: as §1

[5] = molecular target: T5, HLA-DR molecule HLA-DRB1*04:04, purified from lymphoblastoid cell line PEYSSON (human); test: as above
T5 construct: Immunoprecipitated from detergent cell lysate with anti-HLA-DR LB3.1 and eluted at pH 2
Description: as §1

[6] = molecular target: T6, HLA-DR molecule HLA-DRB1*04:02, purified from lymphoblastoid cell line YAR (human); test: as above
T6 construct: Immunoprecipitated from detergent cell lysate with anti-HLA-DR LB3.1 and eluted at pH 2
Description: as §1

[7] = molecular target: T7, HLA-DR molecule HLA-DRB1*01:01, purified from lymphoblastoid cell line JESTHOM (human); test: as above
T7 construct: Immunoprecipitated from detergent cell lysate with anti-HLA-DR LB3.1 and eluted at pH 2
Description: as §1

DPGVEVTLTMKAASGSTGDQ (Synthetic peptide p8) [peptide 8, 20-mer peptide from human PAD4]
binding to HLA-DRB1*04:02 (HLA-DRB1*04:02): binds
subjects with T cell proliferative response to peptide (OD ratio higher than 2) [1]: 0/11 and no healthy control
subjects with T cell proliferative response to peptide (OD ratio higher than 2) ([1]; listed as Peptide 8): 0
binding to HLA-DRB1*07:01 (HLA-DRB1*07:01): binds
binding to HLA-DRB1*01:01 (HLA-DRB1*01:01): binds
binding to HLA-DRB1*04:04 (HLA-DRB1*04:04): binds
binding to HLA-DRB1*04:01 (HLA-DRB1*04:01): binds
binding to the five tested HLA-DRB1 alleles ([2]; HLA-DRB1*01:01, *04:01, *04:02, *04:04, *07:01): bound all five tested HLA-DRB1 alleles

VRVFQATRGKLSSKCSVVLG (Synthetic Peptide 22) [20-mer peptide from human PAD4]
subjects with T cell proliferative response to peptide (OD ratio higher than 2) [1]: none of 11
binding to HLA-DRB1*04:01 (HLA-DRB1*04:01): bind HLA-DRB1*04:01 only

B1: peptide 22 from PAD4 (VRVFQATRGKLSSKCSVVLG) (peptide)
peptide: VRVFQATRGKLSSKCSVVLG
notes: Synthetic 20-mer, coated on the ELISA plate (10 ug/well); also called p22; peptide p22
binding result [3]: binds

B2: peptidyl arginine deiminase 4 (protein, listed as Homo sapiens)
chain: MAQGTLIRVTPEQPTHAVCVLGTLTQLDICSSAPEDCTSFSINASPGVVVDIAHSPPAKKKSTGSSTWPLDPGVEVTLTMKAASGSTGDQKVQISYYGPKTPPVKALLYLTAVEISLCADITRTGKVKPTRAVKDQRTWTWGPCGQGAILLVNCDRDNLESSAMDCEDDEVLDSEDLQDMSLMTLSTKTPKDFFTNHTLVLHVARSEMDKVRVFQATRGKLSSKCSVVLGPKWPSHYLMVPGGKHNMDFYVEALAFPDTDFPGLITLTISLLDTSNLELPEAVVFQDSVVFRVAPWIMTPNTQPPQEVYACSIFENEDFLKSVTTLAMKAKCKLTICPEEENMDDQWMQDEMEIGYIQAPHKTLPVVFDSPRNRGLKEFPIKRVMGPDFGYVTRGPQTGGISGLDSFGNLEVSPPVTVRGKEYPLGRILFGDSCYPSNDSRQMHQALQDFLSAQQVQAPVKLYSDWLSVGHVDEFLSFVPAPDRKGFRLLLASPRSCYKLFQEQQNEGHGEALLFEGIKKKKQQKIKNILSNKTLREHNSFVERCIDWNRELLKRELGLAESDIIDIPQLFKLKEFSKAEAFFPNMVNMLVLGKHLGIPKPFGPVINGRCCLEEKVCSLLEPLGLQCTFINDFFTYHIRHGEVHCGTNVRRKPFSFKWWNMVP
notes: Human PAD4 protein produced in baculovirus expression system
expression of CD154 (T cell early activation marker) on CD4 T cells (CD4 T cells): increased expression of CD154
production of TNF alpha by CD4 T cells (CD4 T cells): increased production of TNF alpha
Likelihood to bind at least one peptide from ([2]; genotype DRB1*01:01/01:01): 0.061
Likelihood to bind at least one peptide from ([2]; genotype DRB1*01:01/04:01): 0.165
Likelihood to bind at least one peptide from ([2]; genotype DRB1*01:01/04:04): 0.120
Likelihood to bind at least one peptide from ([2]; genotype DRB1*01:01/07): 0.076
Likelihood to bind at least one peptide from ([2]; genotype DRB1*04:01/04:01): 0.258
Likelihood to bind at least one peptide from ([2]; genotype DRB1*04:01/04:04): 0.218
Likelihood to bind at least one peptide from ([2]; genotype DRB1*04:01/07): 0.178
Likelihood to bind at least one peptide from ([2]; genotype DRB1*04:02/07): 0.090
Likelihood to bind at least one peptide from ([2]; genotype DRB1*04:04/04:02): 0.134
Likelihood to bind at least one peptide from ([2]; genotype DRB1*04:04/04:04): 0.176
Likelihood to bind at least one peptide from ([2]; genotype DRB1*04:04/07): 0.134
Likelihood to bind at least one peptide from ([2]; genotype DRB1*07/07): 0.090

B3: peptide 8 from PAD4 (DPGVEVTLTMKAASGSTGDQ) (peptide)
peptide: DPGVEVTLTMKAASGSTGDQ
notes: Synthetic 20-mer, coated on the ELISA plate (10 ug/well); also called p8; peptide p8
binding result [4]: binds
binding result [3]: binds
binding result [5]: binds
binding result [6]: binds
binding result [7]: binds
